Measured values reported in paper PMC4505822.

Target: wild-type full-length recombinant human prion protein (human) (UniProt P04156)
Experiment: AFM height measurement with a calibration curve of marker proteins

With “wild-type full-length recombinant human prion protein (from UniProt P04156 23-231) (natural protein)” the stoichiometry N was 11 to 22 monomers.
